Assay: soluble on expression in E. coli; label from the status in PepcDB or PDB records

Row | Sequence | soluble on expression in E. coli
1 | METPLVSIVSICWNRKDEICESLNNIRKIDYESLEIIVVDNGSTDGTVEKIEEDFKEVKLIKMPKNAGIEAYNVGFKSAAGEYIVILDDDSFPEKNSIKRMVKKFQKDDKLGMVAFDVRNYYNYDEVKKIDTEETSNDTAAESDEYIMAFNGAGAGVRTEVLKKAGFYPEEFFLYWNEQDTAFRILDMGYKIKFFADVIAYHKYSPKNRASWRAPFYYTRNAFFLVWKNYSTKAALKKTIELIYDCFYYSMEQKTNIYLKAMWNAFMNFNKIKGKRKVVDKYIEENLRIPLNVSFTFYKLEHHHHHH | not soluble
2 | METQLSVQLGLDSLLTDFGLESVMNKQQQLFANMGLSDIGAPTPSTAIPVPNAHLHPSMVAGSDPSNPVVGFGFGSPSSTTSSSPPLSNSPTIEQQQHAQLTAMMQGIMSNNNVAVSNGSGVQVASVPAVHCSGCKSNETATSFCQDCNANLCDNCTMAHKFMHCFADHRVVSLTTPGTGSSSSSTSSSSSASSTSSHQVPSLGGKQSPDSMMLGSGKRSVLCLQHRASELVFFCVSCNLAICRDCTVSDHPSGTHQYELIADVADKQMLKMEQLIADARSKHADMLDMFKQVDNKQQVLTASLHNAHAQLEETVSNLINVIQDQKKTLAKDIDNAFAAKQIQLTMVDKRIQSMADKLSQTIEFSRRLMSFASPAEVMVFKQLLDTRLQLFLGFNPDTSGVLMTPCEIEYLGAAGLFNNSASTVSQLLGSVHGGSPINNAPAANDFLMPQAGLAPIGRAQSRIIPIEQNQLARSPPHHIAGSLPMNAYSDSNLLRPNKDFGGSSQSLGPFNPLGASVPGAAADPFSSQYDKWSLGVEPSVGGLLEGGNVDEEKFQTLFPPSRSQIKRQKMIYHCKFGEFGVMEGQFTEPSGVAVNGQGDIVVADTNNHRIQVFDKEGRFKFQFGECGKRDGQLLYPNRVAVNRTTGDFVVTERSPTHQIQVYNQYGQFLRKFGANILQHPRGVCVDSKGRIIVVECKVMRVIIFDMFGNILQKFSCSRYLEFPNGVCTNDKNEILISDNRAHCIKVFSYEGQYLRQIGGEGVTNYPIGVGINSLGEVVVADNHNNFNLTVFSQDGTMIGALESRVKHAQCFDVALVDDGSVVLASKDYRLYLYRFLPATSGQSTSSASSQI | not soluble
3 | METSNFVKQLSSNNRKTRVNALEALKKYLTAKQFKENKQIEFNKLWKGLYYAMWFSDRPRPQQRLANELGELHGLYFDPKDNSTADELTTNDKAFIKFSRGFWKVMCFEWFNIDRYRLDKYLLLIRRVLFSQLKYLQSRNWDKKLVDEYIKKVLRWLPLSGSPKVYTGIPIHIVDILLDEWERLLKDGDEDDEDEENKEEEMRKIAESAKKTPLADVIAIFQDIVADYNNSKVLREKIKEDLFSDTRLVSWDILEGETQHNDSSNESEEEEEEEWKGF | not soluble
4 | METTIFQFQKTFFTKPPKERVFVLHGEEQYLIRTFLSKLKEKYGENYTVLWGDEISEEEFYTALSETSIFGGSKEKAVVIYNFGDFLKKLGRKKKEKERLIKVLRNVKSNYVFIVYDAKLQKQELSSEPLKSVASFGGIVVANRLSKERIKQLVLKKFKEKGINVENDALEYLLQLTGYNLMELKLEVEKLIDYASEKKILTLDEVKRVAFSVSENVNVFEFVDLLLLKDYEKALKVLDSLISFGIHPLQIMKILSSYALKLYTLKRLEEKGEDLNKAMESVGIKNNFLKMKFKSYLKANSKEDLKNLILSLQRIDAFSKLYFQDTVQLLRDFLTSRLEREVVKNTSHGG | soluble
5 | MEVAPEQPRWMAHPAVLNAQHPDSHHPGLAHNYMEPAQLLPPDEVDVFFNHLDSQGNPYYANPAHARARVSYSPAHARLTGGQMCRPHLLHSPGLPWLDGGKAALSAAAAHHHNPWTVSPFSKTPLHPSAAGGPGGPLSVYPGAGGGSGGGSGSSVASLTPTAAHSGSHLFGFPPTPPKEVSPDPSTTGAASPASSSAGGSAARGEDKDGVKYQVSLTESMKMESGSPLRPGLATMGTQPATHHPIPTYPSYVPAAAHDYSSGLFHPGGFLGGPASSFTPKQRSKARSCSEGRECVNCGATATPLWRRDGTGHYLCNACGLYHKMNGQNRPLIKPKRRLSAARRAGTCCANCQTTTTTLWRRNANGDPVCNACGLYYKLHNVNRPLTMKKEGIQTRNRKMSNKSKKSKKGAECFEELSKCMQEKSSPFSAAALAGHMAPVGHLPPFSHSGHILPTPTPIHPSSSLSFGHPHPSSMVTAMG | soluble
6 | MEVDTSSSSSSEDECDPSSPSTAYIHSASVRLSVGTEEAARTVADVIKIDKEPRRSGARREVCSEGEFVVIKIESKDPKSLSKSIANAVDMIDLSVKTIKLCENLGKSKENGLKRKLSNGSQA | not soluble
7 | MEVHDSDAYKADEKEEEKAEEVELDDSDVESEEESEDEESDEDPEDGPAPRRFETFDDAKQFWAEHFEEELIPNEDLDLNCYLFNPNGEPVVPQPVKRAMNPRSLFNNQRPVQVYHQRWELLPNEEAEHWKEMWVQMRDEQREQIEEQLIEFRYSSKS | not soluble
8 | MEVIRSQKRTVSNDVVSTPTLPLYLTAPHMEVRLEEFELFAIDRLRVLKGVSDGLARARNPNEMDDLVETLWKEHMRLSNVSEMINKDIISHFVLRLVYCRSDELKKWFLSMETALFRHRFRLKKIEEQRAIVGEFGLPYKAVIGAELESLKERLGLVARSHGQISSDVENIYYKVPFEEVPDLVASRRVLLQKGFAFVAGTQLVSLVVTQFRSHLSKALILTNRKWTTTIREREKDRLTPIVEALSTSYLGPDYSQSNEYADISLKDIDQVSKSSFPLCMRHLFEKLREDHHLKHGGRMQLGLFLKLDDALAFWREEFTKKVGSERFDKEYAYAIRHNYGKEGKRTDYTPYACSKIITSAPGAGDHHGCPYRHFSEDNLKAALSRMGLSSRGMEDVMDKVRNRHYQLACTLTFEAVYGTSCDTGINHPNQYFEESQKILKSKTPAAPV | soluble
9 | MEVLHKPVLLRESVEFLTENGGKIYVDCTLGGGGHAKEILKKRKDIFLIGIDRDEEAIEIAKENLKEFEGRFSIYKANFKDLDLVLKEEGIDKVDGFLFDLGVSMYQLKGERGFTFQEDQPLDMRMDKEQTLTACKVVNNYPERELIRILKEYGEEKFAVRIAKAIVQRRKKKPIETTGELVDVILSVVPEYYKHGKIHPATRTFQAIRIEVNKELESLKEALEKTPYHFNSKGRLVVITFHSLEDRIVKHFIKEKEKEGIFRIITKKPVTPSEEEIRENPASRSAKLRVAEKI | soluble
10 | MEVQFKNTRKGYYLNSERIELHKGDVVAVEANPGHDIGTVTLTGKLVKLQMRKHRYNTNNGEPFKIYRIAKQGDLDKYCEAKAREYDTMIQSRQISAELNLDMKIGDVEYQGDGNKAIFYYIADERVDFRQLIRVLAETFHIRVEMKQIGARQEAGRIGGIGPCGRQLCCSAWKMNFVSVNTSAARYQDLALNPQKLTGLCAKLKCCLNYEVDAYVEARKKMPSPEIVLETKESAYHYFKADVFRREVSYSTVPNAPVNLTTISARRAFEVISQNKQGFKPVSLEYDDKKQSSGHELSDILTDNSLTRFDDALSRRRRRNGNGNRDFSDREKAGEPHRTPDSIQPTPRVRSSSRMPSREKSPRPEGGDRRENMRERSRGDARFARPYTNEGGSERMEGARRVVGSGRRPPRQSTPRQEDRQGERKEELEHHHHHH | soluble
11 | MEVYMKKLINDKNNIVEEVVQGMIKAFPNKVSRVENEPIIIRKNKKVNKVALISGGGSGHEPAHAGYVGYGMLDAAVCGEIFTSPGADKVYSAIKAVDAGKGVLLIIKNYSGDVMNFEMAGEMAQAEGITVKQVVVDDDIAVENSTYTVGRRGIAGTIFVHKILGAAAEKGYDLDKLVELGNKVVKNLKTMGMSLKPCTVFTTGKESFEIADDEVEIGLGIHGEPGTHREKMTTANEFTKKLFEKIYAESNVQNGDRFAVLVNGLGETTLIELFIINNHLQDLLKDKRIEVAKTLVGNYMTSLDMGGFSISLLKLDKEMEELLNAEEDTIAFLEHHHHHH | soluble
12 | MEYRMFDIGVNLTSSQFAKDRDDVVACAFDAGVNGLLITGTNLRESQQAQKLARQYSSCWSTAGVHPHDSSQWQAATEEAIIELAAQPEVVAIGECGLDFNRNFSTPEEQERAFVAQLRIAADLNMPVFMHCRDAHERFMTLLEPWLDKLPGAVLHCFTGTREEMQACVAHGIYIGITGWVCDERRGLELRELLPLIPAEKLLIETDAPYLLPRDLTPKPSSRRNEPAHLPHILQRIAHWRGEDAAWLAATTDANVKTLFGIAF | soluble
13 | MEYSQIPSFAFYNNASIFQFFPRNKRLNTHQKSCLDEHARKMAVFMMERQEEYRYYENLANQEQFSDDACFSDTGMDSGFCSGATSTGQSASTSPAPAHLIPNPFFDPEYVAKAQSPVKLVANPFYNPELVKEIKKKSRVSV | not soluble
14 | MFAKVHPAEDVKSGNTGSCHDLVRYLEKETGEGQRFFSHTEQDISPERVIMDIDGNKKALGANDAKFFMLSLNPSQSEQMHLIGRKVDDFKELTPQEKKEVFQKLEAFTRSAMDEYALNFGRDNIRGGQDLMYYARVETERSYHPEDEEVKQGIARIGEPKPGLNLHVHVIVSRKSLDGKVKLSPGAKSAGNTWELEGRGTVKRGFSHEGWKVRVQECFNRKFDYQA | not soluble
15 | MFDDQDEIHPLLAGAPQTTEFRKLRKRIVREVREAIETYGMVERGARWLVCLSGGKDSYTLLAVLHELKWRGLLPVDLLACNLDQGQPGFPATVLPEFLSRMGVPHRIEYQDTYSIVMDKIPQGRTYCALCSRLRRGNLYRIAREEGCSAVVLGHHRDDILETFFMNLFHGGRLATMPPKLVNEDGDLFVYRPLAFVAEADCEKFARDMAYPIIPCDLCGSQEGLQRQQVKQILDGWEARSPGRRQVMFRALMNARPSHLLDPGLFDFLGLATAPRASEERQDEPPHLRGEA | not soluble
16 | MFDPPALKNSVISFLNKRRHSSGGYTLYEGLPDSKNTYYAIRSFEVLDHEPPRLEETLDWLEDVHRGGTFAAQGLFYRCSILRDYGRNFEIPEKFTEMLRTSYRKSSLEITFYMDSVLRMHGEYLDEIPEWVLSIQNEDGGFGAYGSDIINTRFALEILNGHGMKIPGDEVLQFTDSCFSDGAWNFTPISYPPYIETVHSGFRINEILRGKVSDVTRFIMKIRNPDGGFRRSVYMGISEPEYTYRAIYMLASIHGW | not soluble
17 | MFGGDTLYELRCSLQLAETEREGGFSPHISPFTAVNDLGHLLGRAGFNTLTVDTDEIQVNYPGMFELMEDLKGMGESNCSWNRKALLHRDTMLAAAAVYREMYRNEDGSIPATFQIYHMIGWKYHDSQARPAERGSATVSFGELAKLNDVMSHEKK | soluble
18 | MFHCPLCQHAAHARTSRYITDTTKERYHQCQNVNCSATFITYESVQRYIVKPGEVHVVRPHPLPSGQQIMWM | soluble
